Tests used:
Assay in all cases: EMSA
Details in all cases: 10 mM Tris-HCl pH 7.4, 50 mM KCl, 1 mM DTT, 100 mg/mL BSA (so in the source), 5 ng/mL poly[dI-dC], 200 uM c-di-GMP, 30 C 20 min; 5% native PAGE with 50 uM c-di-GMP …
[1] = molecular target: T1, MrkH-8xHis (Klebsiella pneumoniae AJ218) (UniProt G3FT00)
T1 sequence: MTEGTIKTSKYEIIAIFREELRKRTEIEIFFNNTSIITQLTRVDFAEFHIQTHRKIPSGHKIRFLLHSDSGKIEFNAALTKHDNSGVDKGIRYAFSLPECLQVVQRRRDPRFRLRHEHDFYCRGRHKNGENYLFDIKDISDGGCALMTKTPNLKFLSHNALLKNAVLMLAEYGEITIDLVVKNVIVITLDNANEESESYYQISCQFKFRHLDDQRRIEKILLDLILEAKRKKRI

[2] = molecular target: T2, MrkH 217AS218-8xHis internal_change (Klebsiella pneumoniae AJ218) (UniProt G3FT00)
T2 sequence: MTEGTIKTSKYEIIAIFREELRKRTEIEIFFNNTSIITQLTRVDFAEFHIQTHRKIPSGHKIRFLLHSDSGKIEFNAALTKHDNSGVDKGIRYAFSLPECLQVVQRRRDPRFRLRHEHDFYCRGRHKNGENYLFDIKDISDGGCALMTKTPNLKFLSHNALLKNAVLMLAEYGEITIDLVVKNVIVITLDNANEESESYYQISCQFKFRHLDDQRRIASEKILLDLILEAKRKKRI

[3] = molecular target: T3, MrkH 202AS203-8xHis internal_change (Klebsiella pneumoniae AJ218) (UniProt G3FT00)
T3 sequence: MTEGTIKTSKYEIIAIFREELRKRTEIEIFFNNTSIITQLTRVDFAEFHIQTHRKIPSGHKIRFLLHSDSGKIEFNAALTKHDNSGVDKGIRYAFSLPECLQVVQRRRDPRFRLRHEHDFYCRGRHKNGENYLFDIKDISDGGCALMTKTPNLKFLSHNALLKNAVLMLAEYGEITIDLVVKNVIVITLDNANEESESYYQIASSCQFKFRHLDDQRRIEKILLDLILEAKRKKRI

[4] = molecular target: T4, MrkH 39AS40-8xHis internal_change (Klebsiella pneumoniae AJ218) (UniProt G3FT00)
T4 sequence: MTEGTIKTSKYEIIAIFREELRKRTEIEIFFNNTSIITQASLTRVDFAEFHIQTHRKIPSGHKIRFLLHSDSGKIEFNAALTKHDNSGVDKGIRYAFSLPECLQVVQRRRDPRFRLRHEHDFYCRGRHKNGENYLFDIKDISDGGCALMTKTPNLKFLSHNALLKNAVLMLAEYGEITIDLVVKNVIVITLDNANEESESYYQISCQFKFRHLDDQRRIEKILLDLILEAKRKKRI

[5] = molecular target: T5, MrkH 15AS16-8xHis internal_change (Klebsiella pneumoniae AJ218) (UniProt G3FT00)
T5 sequence: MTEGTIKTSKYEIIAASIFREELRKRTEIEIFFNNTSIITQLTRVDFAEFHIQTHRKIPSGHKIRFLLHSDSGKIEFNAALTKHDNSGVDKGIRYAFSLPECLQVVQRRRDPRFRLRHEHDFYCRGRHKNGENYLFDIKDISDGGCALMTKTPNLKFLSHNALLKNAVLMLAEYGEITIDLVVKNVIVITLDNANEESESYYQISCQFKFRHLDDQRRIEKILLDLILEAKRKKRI

Sequence	binding [1]	binding [2]	binding [3]	binding [4]	binding [5]
GCTGTTGCGGTCACTTTCTCTCGCTCTGGCGTTAGGCTTGCTGCGCTGTAAACAACCACCCTCGCGTTTTCATCTAAGAATGACTGTTTATTAATAGTCGATGGTTATCTGTTATATAACTTAATGAAACGTGAACAAATGTATATTTGTCGGCGAATAAATAGCATTCTTTGACGCCGATAGCACCAGCGAACTTATATTTTTAGGTTCGTTACCTGACGCCTTAAATATTGCGGCTCCCGGTCAGTCGAAGATTCTATTAGCAGTGGC (double strand) [mrkA fragment, MrkH box mut-6]	binds more weakly				
GCTGTTGCGGTCACTTTCTCTCGCTCTGGCGTTAGGCTTGCTGCGCTGTAAACAACCACCCTCGCGTTTTCATCTATCAATGACTGTTGCAGCATAGTCGATGGTTATCTGTTATATAACTTAATGAAACGTGAACAAATGTATATTTGTCGGCGAATAAATAGCATTCTTTGACGCCGATAGCACCAGCGAACTTATATTTTTAGGTTCGTTACCTGACGCCTTAAATATTGCGGCTCCCGGTCAGTCGAAGATTCTATTAGCAGTGGC (double strand) [mrkA fragment, UP mutation]	binds				
GCTGTTGCGGTCACTTTCTCTCGCTCTGGCGTTAGGCTTGCTGCGCTGTAAACAACCACCCTCGCGTTTTCATCTATCAATGACTGTTTATTAATAGTCGATGGTTATCTGTTATATAACTTAATGAAACGTGAACAAATGTATATTTGTCGGCGAATAAATAGCATTCTTTGACGCCGATAGCACCAGCGAACTTATATTTTTAGGTTCGTTACCTGACGCCTTAAATATTGCGGCTCCCGGTCAGTCGAAGATTCTATTAGCAGTGGC (double strand) [mrkA promoter fragment, wild type]	binds	no binding	no binding	binds	binds
GCTGTTGCGGTCACTTTCTCTCGCTCTGGCGTTAGGCTTGCTGCGCTGTAAACAACCACCCTCGCGTTTTCATCTCCCAATGACTGTTTATTAATAGTCGATGGTTATCTGTTATATAACTTAATGAAACGTGAACAAATGTATATTTGTCGGCGAATAAATAGCATTCTTTGACGCCGATAGCACCAGCGAACTTATATTTTTAGGTTCGTTACCTGACGCCTTAAATATTGCGGCTCCCGGTCAGTCGAAGATTCTATTAGCAGTGGC (double strand) [mrkA fragment, MrkH box mut-5]	binds more weakly				

Reference: PMC3828302
